This passage reports self-cleavage results from the RNAGym collection of RNA variant scans (doi:10.7554/elife.80360).

The labels stand for the following.
B1: HDV Ribozyme (parent)
chain: GGCCGGCAUGGUCCCAGCCUCCUCGCUGGCGCCGGCUGGGCAACAUUCCGAGGGGACCGUCCCCUCGGUAAUGGCGAAUGGGACCCA

In the data set the parent is B1. Kind of data set: self-cleavage, relative activity (ratio to wild type); higher = more cleavage; co-transcriptional.
As to C33U U79C, the self-cleavage was determined as 0.325.

As to G55C C62A, the self-cleavage was determined as 1.04.

For C41U C62A, the self-cleavage amounted to 1.02.

Consider A8C C24U, for which the self-cleavage worked out at 0.396.

For G1U G52A, the self-cleavage was determined as 0.356.

With U12A U69A, the self-cleavage was 0.346.

C32G A70G: the self-cleavage came out at 0.0554.

In the case of U12A G76C, the self-cleavage was 0.443.

Consider C61U C85G, for which the self-cleavage worked out at 0.981.

Turning to C3G C24U, the self-cleavage was 0.196.

Regarding U37C G68C, the self-cleavage came out at 0.682.

Take G53C C66G: the self-cleavage stood at 1.01.

As for A56C C84A, the self-cleavage was 0.95.

As to A45C A51C, the self-cleavage is 0.875.

As for C61G U72G, the self-cleavage was 0.332.

Regarding A8G G55C, the self-cleavage was 0.982.

As for U20G G39C, the self-cleavage turned out to be 0.175.

Consider U27C G40U, for which the self-cleavage is 0.7.

With G35U U60C, the self-cleavage amounted to 0.317.

As to G68A G81C, the self-cleavage was found to be 0.175.

In the case of C30G A71C, the self-cleavage was determined as 0.0554.

In the case of U27A U69C, the self-cleavage is 1.11.

As to A43C C49U, the self-cleavage was 0.684.

As for C62G G74U, the self-cleavage was found to be 0.372.

Take G2A G59C: the self-cleavage was 0.244.

Regarding A56G G81A, the self-cleavage was 0.665.

As to G11C G52A, the self-cleavage came out at 0.232.

As to G5U C48G, the self-cleavage turned out to be 0.554.

Take U46A C66G: the self-cleavage amounted to 1.05.

Take G1A C62A: the self-cleavage worked out at 0.0791.

On to U27C A83C, for which the self-cleavage was found to be 0.554.

As to G29C C58A, the self-cleavage is 0.0755.

For A43G G80U, the self-cleavage was found to be 0.0916.

Regarding C63A U65C, the self-cleavage is 0.525.

As to C30U C85A, the self-cleavage was determined as 0.441.

C22G A77G: the self-cleavage worked out at 0.0504.

As for C19G G68U, the self-cleavage was 0.119.

On to C15U G73U, for which the self-cleavage amounted to 0.269.

For the variant U27G U79C, the self-cleavage stood at 0.308.

Consider C7G G11U, for which the self-cleavage came to 0.104.

Consider G53A U72C, for which the self-cleavage stood at 0.731.

In the case of C24A A51U, the self-cleavage came to 0.747.

Take G55C U72C: the self-cleavage was determined as 0.798.

Consider C3U C84G, for which the self-cleavage was 0.636.

For the variant C7U A45C, the self-cleavage was determined as 0.119.

For the variant G52C C64A, the self-cleavage was determined as 0.753.

On to G1C C61U, for which the self-cleavage was determined as 0.185.

As for A16U U37A, the self-cleavage is 0.0554.

For the variant G10A C19A, the self-cleavage came to 0.0489.

On to G54U A87U, for which the self-cleavage was found to be 0.973.

As for U72A G81C, the self-cleavage worked out at 0.0898.

On to C66G G74U, for which the self-cleavage came out at 0.396.

For the variant C26U C44U, the self-cleavage came to 1.01.

Turning to U37A A87G, the self-cleavage was 0.0989.

In the case of C13U C86A, the self-cleavage was 0.96.

As to C24U G80A, the self-cleavage is 0.0525.

Turning to U37C U46C, the self-cleavage stood at 0.914.

As for G81U C86U, the self-cleavage came to 0.767.

For the variant G5C G73C, the self-cleavage stood at 0.0639.

As for U12C G29U, the self-cleavage stood at 0.0346.

For C14U G59U, the self-cleavage amounted to 0.997.

C48G C63U: the self-cleavage turned out to be 1.08.

For C58U A70U, the self-cleavage amounted to 1.29.

C22A G28A: the self-cleavage stood at 0.148.

Consider G6A U69G, for which the self-cleavage is 0.689.

Turning to U23A G52C, the self-cleavage amounted to 0.946.

On to G29U C75A, for which the self-cleavage turned out to be 0.0639.

As to G6U U27A, the self-cleavage came to 0.453.

As to C19U A83G, the self-cleavage turned out to be 0.0985.

With G10A U69G, the self-cleavage is 0.554.

On to C26A G82U, for which the self-cleavage was 0.317.

Regarding U37A U46C, the self-cleavage amounted to 0.0852.

On to G28A C32G, for which the self-cleavage amounted to 0.

Regarding G1A A56G, the self-cleavage was 0.

Turning to G50A U79A, the self-cleavage was 0.88.

With C41A G50U, the self-cleavage was found to be 0.886.

As to C75G G76A, the self-cleavage came out at 0.196.

For the variant U20G C36G, the self-cleavage stood at 0.151.

On to U20G C36U, for which the self-cleavage came out at 0.155.

On to C41A U72G, for which the self-cleavage stood at 0.712.

With G38U G73A, the self-cleavage was 0.149.

For the variant U46A A77U, the self-cleavage worked out at 0.115.

Regarding C41A C48A, the self-cleavage was 0.982.

Regarding G50U C61U, the self-cleavage amounted to 0.59.

With G2C A42U, the self-cleavage turned out to be 0.0475.

As to A43U U47A, the self-cleavage amounted to 0.271.

Regarding U27C A43C, the self-cleavage was determined as 0.172.

For the variant G10U G53U, the self-cleavage was 0.699.

Regarding A71C C84A, the self-cleavage came to 0.511.

Consider C14U A70G, for which the self-cleavage is 0.931.

As to U79C C84U, the self-cleavage was 0.332.

Consider G59U U72G, for which the self-cleavage worked out at 0.776.

As for G6C C22U, the self-cleavage was found to be 0.185.

Turning to G28A G31C, the self-cleavage is 0.

For the variant C15G A16C, the self-cleavage worked out at 0.369.

For the variant G11A C64G, the self-cleavage was 0.705.

With A56G A78G, the self-cleavage worked out at 0.615.

As to C33G C86G, the self-cleavage is 0.151.

Take U9C U79G: the self-cleavage is 0.519.

For the variant G35U C58A, the self-cleavage came to 0.554.

Consider C4U G40A, for which the self-cleavage amounted to 0.604.

On to C26A C33G, for which the self-cleavage worked out at 0.317.

For the variant C62G C63U, the self-cleavage is 0.604.

Take C14U U37G: the self-cleavage is 0.199.

For the variant C3A C48U, the self-cleavage was determined as 0.635.

As for C26G A78U, the self-cleavage was 0.401.

As for U20A C30A, the self-cleavage came to 0.0739.

Take G5U G54C: the self-cleavage worked out at 0.867.

With C14G G31A, the self-cleavage stood at 0.324.

On to C13U A70U, for which the self-cleavage stood at 0.342.

Take C33A G39C: the self-cleavage came out at 0.0678.

Take U9G C85G: the self-cleavage was 0.895.

As for C48G U65C, the self-cleavage was found to be 0.931.

Consider G2U C32A, for which the self-cleavage was 0.0302.

In the case of C21U C63A, the self-cleavage came out at 0.234.

Regarding C30A C36G, the self-cleavage came out at 0.148.

For the variant C41A A43U, the self-cleavage is 0.57.

With G31U C33A, the self-cleavage was 0.0231.

G35A A70G: the self-cleavage worked out at 0.491.

For C57U C84A, the self-cleavage was determined as 0.748.

Regarding A42C A51C, the self-cleavage worked out at 0.0594.

For the variant C3A C49G, the self-cleavage amounted to 0.51.

Regarding C14G U47G, the self-cleavage was 0.383.

With A16G A51U, the self-cleavage is 0.906.

Regarding G38A G39A, the self-cleavage came to 0.0963.

With G74U A83C, the self-cleavage amounted to 0.271.

Regarding A77C A83G, the self-cleavage worked out at 0.156.

For G11U C75A, the self-cleavage is 0.0231.

C7U A71C: the self-cleavage stood at 0.322.

On to C14A U37A, for which the self-cleavage was 0.0405.

For the variant C22U C57U, the self-cleavage is 0.817.

On to C7U U79G, for which the self-cleavage turned out to be 0.434.

On to C14G G34C, for which the self-cleavage came to 0.138.

As for C48A G81U, the self-cleavage came to 0.338.

For the variant G2A C14G, the self-cleavage stood at 0.0773.

As for G40U G82A, the self-cleavage was 0.256.

On to G34A G35C, for which the self-cleavage worked out at 0.0378.

In the case of G2U A77U, the self-cleavage worked out at 0.0244.

For the variant C24U C30U, the self-cleavage amounted to 0.142.

In the case of G2A G11C, the self-cleavage turned out to be 0.0519.

For the variant A16C C85U, the self-cleavage is 0.795.

G2U G17A: the self-cleavage was determined as 0.

As for G10A G59A, the self-cleavage was 0.853.

Turning to G5C A83C, the self-cleavage was 0.

C57A A77G: the self-cleavage worked out at 1.17.

As for U47G G67U, the self-cleavage came out at 0.929.

Turning to C36A C86G, the self-cleavage came out at 0.325.

On to C26U C84A, for which the self-cleavage was 1.15.

For the variant U47C C63G, the self-cleavage came out at 0.178.

As to A16G C62A, the self-cleavage was determined as 0.877.

In the case of G10U G35U, the self-cleavage is 0.337.

On to G28U G35U, for which the self-cleavage is 0.0936.

As for C66G A83C, the self-cleavage stood at 0.178.

With G35U C66U, the self-cleavage is 0.459.

Take A16C G17C: the self-cleavage was determined as 0.266.

Regarding U12A C85G, the self-cleavage amounted to 0.208.

In the case of C21U G80C, the self-cleavage came out at 0.151.

As to C44G G67A, the self-cleavage was determined as 0.65.

On to C14U G52A, for which the self-cleavage was 0.973.

For A16C G54A, the self-cleavage stood at 0.866.

U27A A45U: the self-cleavage is 0.458.

Turning to C22U U37A, the self-cleavage was 0.166.

As for G29U G76U, the self-cleavage worked out at 0.137.

Turning to C61A C62A, the self-cleavage turned out to be 0.904.

On to A42G C86U, for which the self-cleavage came out at 0.697.

With G80A A87C, the self-cleavage was 0.33.

On to C13A A87U, for which the self-cleavage came to 0.157.
